Consider five molecules from patent US20190321478A1 (IMMATICS BIOTECHNOLOGIES, published 2019).

B1: TCR R37P1H1 (TCR, V domains shown)
V domain 1: AQTVTQSQPEMSVQEAETVTLSCTYDTSESNYYLFWYKQPPSRQMILVIRQEAYKQQNATENRFSVNFQKAAKSFSLKISDSQLGDTAMYFCAFGYSGGGADGLTFGKGTHLIIQP
V domain 2: DAGVTQSPTHLIKTRGQQVTLRCSPKSGHDTVSWYQQALGQGPQFIFQYYEEEERQRGNFPDRFSGHQFPNYSSELNVNALLLGDSALYLCASSNEGQGWEAEAFFGQGTRLTVVE
B2: TCR R26P2A6 (TCR, V domains shown)
V domain 1: QKEVEQDPGPLSVPEGAIVSLNCTYSNSAFQYFMWYRQYSRKGPELLMYTYSSGNKEDGRFTAQVDKSSKYISLFIRDSQPSDSATYLCAMSDVSGGYNKLIFGAGTRLAVHP
V domain 2: EAQVTQNPRYLITVTGKKLTVTCSQNMNHEYMSWYRQDPGLGLRQIYYSMNVEVTDKGDVPEGYKVSRKEKRNFPLILESPSPNQTSLYFCASTTPDGTDEQFFGPGTRLTVLE
B3: TCR R42P3A9 (TCR, V domains shown)
V domain 1: GIQVEQSPPDLILQEGANSTLRCNFSDSVNNLQWFHQNPWGQLINLFYIPSGTKQNGRLSATTVATERYSLLYISSSQTTDSGVYFCAVHNFNKFYFGSGTKLNVKP
V domain 2: AAGVIQSPRHLIKEKRETATLKCYPIPRHDTVYWYQQGPGQDPQFLISFYEKMQSDKGSIPDRFSAQQFSDYHSELNMSSLELGDSALYFCASSLLGQGYNEQFFGPGTRLTVLE
B4: TCR R26P1A9 (TCR, V domains shown)
V domain 1: SQQGEEDPQALSIQEGENATMNCSYKTSINNLQWYRQNSGRGLVHLILIRSNEREKHSGRLRVTLDTSKKSSSLLITASRAADTASYFCLIGASGSRLTFGEGTQLTVNP
V domain 2: DAGVIQSPRHEVTEMGQEVTLRCKPISGHDYLFWYRQTMMRGLELLIYFNNNVPIDDSGMPEDRFSAKMPNASFSTLKIQPSEPRDSAVYFCASSYFGWNEKLFFGSGTQLSVLE
B5: TCR R59P2E7 (TCR, V domains shown)
V domain 1: KQEVTQIPAALSVPEGENLVLNCSFTDSAIYNLQWFRQDPGKGLTSLLLIQSSQREQTSGRLNASLDKSSGRSTLYIAASQPGDSATYLCAVNSDYKLSFGAGTTVTVRA
V domain 2: AAGVIQSPRHLIKEKRETATLKCYPIPRHDTVYWYQQGPGQDPQFLISFYEKMQSDKGSIPDRFSAQQFSDYHSELNMSSLELGDSALYFCASSLGLGTGDYGYTFGSGTRLTVVE

The experiment addresses HLA-A*02-presented MAGEA1-003 (on target cells) (human). Nature of the experiment: cell-based or functional assay.
B1: the “EC50 of IFNγ release, T2 cells loaded with titrated MAGEA1-003 peptide” value came out at 26 nM.

On to B2, for which the “EC50 of IFNγ release, T2 cells loaded with titrated MAGEA1-003 peptide” value was found to be 100 nM. The result for B3 reads 823 nM; that for B4, 6 nM. In the case of B5 it was 386 nM.
